Results taken from patent US20250057927A1, “ALPHA-1 A[…] FROM YEAST FOR USE IN THE TREATMENT OF VIRAL INFECTIONS” (priority 2021, published 2025).

Tested on: lentiviral pseudoparticles harbouring the SARS-CoV-2 spike protein of Wuhan Hu-1 isolate
Type: cell-based

Prolastin
IC50 of inhibiting pseudoparticle entry into Caco2 cells: 3160 µg/mL | estimated IC90: 20000 µg/mL | pseudoparticle entry: about 10%

B1: rec α1AT Fraction 52 (protein)
chain: EDPQGDAAQKTDTSHHDQDHPTFNKITPNLAEFAFSLYRQLAHQSNSTNIFFSPVSIATAFAMLSLGTKADTHDEILEGLNFNLTEIPEAQIHEGFQELLRTLNQPDSQLQLTTGNGLFLSEGLKLVDKFLEDVKKLYHSEAFTVNFGDTEEAKKQINDYVEKGTQGKIVDLVKELDRDTVFALVNYIFFKGKWERPFEVKDATEEEDFHVDQVTTVKVPMMKRLGMFNIQHCKKLSSWVLLMKYLGNATAIFFLPDEGKLQHLENELTHDIITKFLENEDRRSASLHLPKLSITGTYDLKSVLGQLGITKVFSNGADLSGVTEEAPLKLSKAVHKAVLTIDEKGTEAAGAMFLEAIPMSIPPEVKFNKPFVFLMIEQNTKSPLFMGKVVNPTQK
inhibition of pseudoparticle entry compared to Prolastin: greater inhibition | inhibition of the entry of SARS-CoV-2: inhibit the entry of SARS-CoV-2 similar to Prolastin

B2: rhAAT (protein)
chain: EDPQGDAAQKTDTSHHDQDHPTFNKITPNLAEFAFSLYRQLAHQSNSTNIFFSPVSIATAFAMLSLGTKADTHDEILEGLNFNLTEIPEAQIHEGFQELLRTLNQPDSQLQLTTGNGLFLSEGLKLVDKFLEDVKKLYHSEAFTVNFGDTEEAKKQINDYVEKGTQGKIVDLVKELDRDTVFALVNYIFFKGKWERPFEVKDATEEEDFHVDQVTTVKVPMMKRLGMFNIQHCKKLSSWVLLMKYLGNATAIFFLPDEGKLQHLENELTHDIITKFLENEDRRSASLHLPKLSITGTYDLKSVLGQLGITKVFSNGADLSGVTEEAPLKLSKAVHKAVLTIDEKGTEAAGAMFLEAIPMSIPPEVKFNKPFVFLMIEQNTKSPLFMGKVVNPTQK
estimated IC90: 8000 µg/mL | inhibition of pseudoparticle entry: complete inhibition

B3: rec α1AT Fraction 53 (protein)
chain: EDPQGDAAQKTDTSHHDQDHPTFNKITPNLAEFAFSLYRQLAHQSNSTNIFFSPVSIATAFAMLSLGTKADTHDEILEGLNFNLTEIPEAQIHEGFQELLRTLNQPDSQLQLTTGNGLFLSEGLKLVDKFLEDVKKLYHSEAFTVNFGDTEEAKKQINDYVEKGTQGKIVDLVKELDRDTVFALVNYIFFKGKWERPFEVKDATEEEDFHVDQVTTVKVPMMKRLGMFNIQHCKKLSSWVLLMKYLGNATAIFFLPDEGKLQHLENELTHDIITKFLENEDRRSASLHLPKLSITGTYDLKSVLGQLGITKVFSNGADLSGVTEEAPLKLSKAVHKAVLTIDEKGTEAAGAMFLEAIPMSIPPEVKFNKPFVFLMIEQNTKSPLFMGKVVNPTQK
activity in the pseudoparticle assay compared to Prolastin: greater activity | inhibition of pseudoparticle entry compared to Prolastin: greater inhibition | inhibition of the entry of SARS-CoV-2: inhibit the entry of SARS-CoV-2 similar to Prolastin
